Where two headings read alike, the source gives them in different places. *1 amine or outer side, *2 acyl side, *3 side chain or, on linkers, in order; H or OH if unused. Bridges are numbered along the chain shown (N, C = ends). Where no end group is shown, it is not given here. TBMB = c1c(C[*:1])cc(C[*:3])cc1C[*:2]
How the values were obtained:
Experiment in all cases: enzyme inhibition assay, fluorogenic substrate Z-PheArg-AMC
rabbit plasma kallikrein [1] = target: T1, rabbit plasma kallikrein (rabbit, UniProt G1T127 20-390; G1T127 391-629, The active enzyme is two chains, heavy and catalytic light, joined by a disulfide after cleavage at Arg390-Ile391. The letters do not carry the natural glycosylation.)
T1 construct: also called rabbit kallikrein
Description: (§1) Functional enzyme assays were conducted in 10 mM Tris HCl, 150 mM NaCl, 10 mM MgCl₂, 1 mM CaCl₂ and 1 mg/mL BSA (all Sigma UK) pH 7.4 at 25° C. in solid black 96 or 384 well plates. […] Release of AMC was measured using a Pherastar FS (BMG Labtech), excitation 360 nm, emission 460 nm. The rate of the linear phase of the reaction, typically 5 to 45 minutes, was calculated in MARS data analysis software (BMG labtech). The rate was then used to calculate the IC₅₀ and Kᵢ in Prism (GraphPad). A four parameter inhibition non-linear regression equation was used to calculate the IC₅₀. The One site-fit Kᵢ equation used to calculate the Kᵢ, constraining the Kᵢ to the Kₘ for the substrate which is 150 μM for the human enzyme, and 200 μM for the rat orthologue. All Kᵢ/IC₅₀ values are the mean of at least two independent experiments, and at least three for peptides with Kᵢ values lower than 1 nM. For rabbit kallikrein, between 7 to 14 pM enzyme was employed, with 33 μM substrate with a Kₘ of 50 μM.

rat plasma kallikrein [2] = target: T2, rat plasma kallikrein (rat, UniProt P14272 391-638)
T2 construct: domain: catalytic domain; Expressed and purified in house; also called rat kallikrein; rPK
Description: as §1

human plasma kallikrein [3] = target: T3, human plasma kallikrein (human, UniProt P03952 20-638)
T3 construct: Enzyme used in the Ki assays; also called human kallikrein; PK
Description: as §1

rabbit plasma kallikrein [4] = target: T1, rabbit plasma kallikrein; remark: listed apart in the source
Description: as §1

rat plasma kallikrein [5] = target: T2, rat plasma kallikrein; remark: listed apart in the source
Description: as §1

human plasma kallikrein [6] = target: T3, human plasma kallikrein; remark: listed apart in the source
Description: as §1

T3 sequence (P03952 20-638 limits assumed): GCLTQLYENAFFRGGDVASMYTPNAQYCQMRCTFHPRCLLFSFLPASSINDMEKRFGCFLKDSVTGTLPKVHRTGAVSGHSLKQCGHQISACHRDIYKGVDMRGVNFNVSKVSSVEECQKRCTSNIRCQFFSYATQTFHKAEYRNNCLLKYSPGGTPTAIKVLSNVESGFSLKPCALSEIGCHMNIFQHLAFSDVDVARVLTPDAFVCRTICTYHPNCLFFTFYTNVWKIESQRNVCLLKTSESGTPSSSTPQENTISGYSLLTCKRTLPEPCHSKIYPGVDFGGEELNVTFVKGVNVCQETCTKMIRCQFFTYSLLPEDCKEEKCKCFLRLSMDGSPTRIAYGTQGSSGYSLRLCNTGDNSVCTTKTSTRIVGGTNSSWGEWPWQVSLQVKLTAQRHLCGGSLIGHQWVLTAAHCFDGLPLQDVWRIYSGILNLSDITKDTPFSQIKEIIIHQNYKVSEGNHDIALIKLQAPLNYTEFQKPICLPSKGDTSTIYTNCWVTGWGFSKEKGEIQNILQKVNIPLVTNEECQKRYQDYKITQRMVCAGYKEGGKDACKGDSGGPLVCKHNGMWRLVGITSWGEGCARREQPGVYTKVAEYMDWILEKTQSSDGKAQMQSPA
T1 sequence (heavy, as listed by the source limits assumed, form in doubt, chain 1 of 2): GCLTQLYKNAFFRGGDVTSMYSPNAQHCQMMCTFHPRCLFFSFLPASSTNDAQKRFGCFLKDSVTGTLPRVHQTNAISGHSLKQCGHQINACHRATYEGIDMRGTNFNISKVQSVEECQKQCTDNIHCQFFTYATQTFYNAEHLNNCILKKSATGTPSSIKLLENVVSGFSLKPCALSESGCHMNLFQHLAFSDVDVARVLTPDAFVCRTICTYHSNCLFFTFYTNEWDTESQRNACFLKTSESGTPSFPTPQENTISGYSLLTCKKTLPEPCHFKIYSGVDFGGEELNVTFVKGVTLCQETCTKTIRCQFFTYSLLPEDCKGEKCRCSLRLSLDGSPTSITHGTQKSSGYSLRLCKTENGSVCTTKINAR
T1 sequence (light, as listed by the source limits assumed, form in doubt, chain 2 of 2): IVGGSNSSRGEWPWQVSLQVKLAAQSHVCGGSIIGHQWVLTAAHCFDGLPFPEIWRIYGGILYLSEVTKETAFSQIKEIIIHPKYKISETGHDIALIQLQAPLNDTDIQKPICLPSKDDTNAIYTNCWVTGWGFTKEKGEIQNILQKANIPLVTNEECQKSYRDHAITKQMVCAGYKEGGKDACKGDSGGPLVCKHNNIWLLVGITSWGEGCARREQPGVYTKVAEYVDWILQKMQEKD
T2 sequence (P14272 391-638 limits assumed): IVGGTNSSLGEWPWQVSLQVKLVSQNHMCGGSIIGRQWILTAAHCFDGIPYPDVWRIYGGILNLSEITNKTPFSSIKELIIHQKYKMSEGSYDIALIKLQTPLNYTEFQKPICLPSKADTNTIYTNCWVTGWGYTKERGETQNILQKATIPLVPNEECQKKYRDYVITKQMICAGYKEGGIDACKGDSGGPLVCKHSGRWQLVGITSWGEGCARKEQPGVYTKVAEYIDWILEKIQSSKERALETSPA

B1: 06-255 (peptide)
peptide: ACRNYWNPCTLINITCA-NH2
modifications: linker 2-9-16 via TBMB
notes: Synthetic bicyclic peptide, 6 x 6, made on Rink amide resin
Rabbit plasma kallikrein [1]
  Ki: 342 nM
Rat plasma kallikrein [2]
  Ki: 18.9 nM
Human plasma kallikrein [3]
  Ki: 3.4 nM
Rabbit plasma kallikrein [4]
  Ki: 342 nM
Rat plasma kallikrein [5]
  Ki: 18.9 nM
Human plasma kallikrein [6]
  Ki: 3.4 nM

— patent publication US20190233475A1 (Bicycle, published 2019)
